Reference: PMC4606454

Legend:
[1] = target: His-MBP-KYP (Arabidopsis) (UniProt Q8GZB6)
YFP-KYP (Arabidopsis) = YFP-KYP (Arabidopsis) (UniProt Q8GZB6); assay: FRET or BRET; FRET acceptor photobleaching (FRET-AB) in nuclei of N. benthamiana epidermal cells; TrAP-CFP donor, YFP-KYP acceptor; 27-30 cells per experiment

Substance | initial velocity of KYP transmethylation of histone 3 (in vitro HMTase reconstitution with 14C-SAM; His-MBP-TrAP pre-incubated with His-GST-KYP at molar ratios 0-10); IC50 as TrAP:KYP molar ratio (TrAP:KYP molar ratio) [1] | FRET-AB (YFP-KYP (Arabidopsis))
His-GST-CaLCuV-TrAP (natural protein) | 2 | 
His-GST-TGMV-TrAP (natural protein) | 2 | 
TGMV TrAP-CFP (natural protein) |  | 3.82
CaLCuV TrAP-CFP (natural protein) |  | 2.7
